The values below come from US20210388110A1 (published 2021).

The assay deals with T1, soluble human GPC3 (human, UniProt P51654 25-563, limits assumed).
T1 construct: soluble human GPC3 as analyte; also called glypican 3
The experiment in a line: SPR (Biacore), soluble human GPC3. (In general: SPR reads the build-up and loss of mass on a sensor chip optically.)

T1 sequence (P51654 other isoform, or with tags, fused parts or gaps limits assumed, form in doubt): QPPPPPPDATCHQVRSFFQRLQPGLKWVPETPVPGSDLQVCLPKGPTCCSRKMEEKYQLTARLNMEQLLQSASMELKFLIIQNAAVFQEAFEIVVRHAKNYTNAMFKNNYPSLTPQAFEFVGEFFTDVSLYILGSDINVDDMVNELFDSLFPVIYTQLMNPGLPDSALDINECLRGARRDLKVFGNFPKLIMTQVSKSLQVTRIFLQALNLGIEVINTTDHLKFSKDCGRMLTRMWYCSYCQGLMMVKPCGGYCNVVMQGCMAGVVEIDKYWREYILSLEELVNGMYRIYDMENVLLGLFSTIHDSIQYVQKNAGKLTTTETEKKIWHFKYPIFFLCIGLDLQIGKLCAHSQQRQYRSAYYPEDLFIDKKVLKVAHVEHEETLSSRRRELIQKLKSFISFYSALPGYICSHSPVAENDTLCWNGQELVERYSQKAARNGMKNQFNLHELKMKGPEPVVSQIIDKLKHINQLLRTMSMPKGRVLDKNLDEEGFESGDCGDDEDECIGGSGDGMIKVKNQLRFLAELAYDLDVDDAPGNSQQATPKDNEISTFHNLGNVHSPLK

B1: GCH054-G1dh/none-Hi-Kn010G3/L0222-k0 (antibody, human IgG1, kappa)
heavy: not shown
chain: EPKSSDKTHTCPPCPAPELLGGPSVFLFPPKPKDTLMISRTPEVTCVVVDVSHEDPEVKFNWYVDGVEVHNAKTKPREEQYNSTYRVVSVLTVLHQDWLNGKEYKCKVSNKALPAPIEKTISKAKGQPREPQVCTLPPSRDELTKNQVSLWCLVKGFYPSDIAVEWESNGQPENNYKTTPPVLDSDGSFFLYSKLTVDKSRWQQGNVFSCSVMHEALHNRYTQKSLSLSP
light: DIVMTQSPLSLPVTPGEPASISCRSSQSPVHSNRNTYIQWYQQKPGQAPRLLIYKVSNRFSGVPDRFSGSGSGTDFTLKISRVEAEDVGVYYCYQGTQVPYTFGQGTKLEIKRTVAAPSVFIFPPSDEQLKSGTASVVCLLNNFYPREAKVQWKVDNALQSGNSQESVTEQDSKDSTYSLSSTLTLSKADYEKHKVYACEVTHQGLSSPVTKSFNRGEC
notes: single-arm (one Fab)
B1 registered a Kd of 0.0315 nM.

B2: GCH054-G1dh/none-Hi-Kn010G3/TR01L015-k0 (antibody, human IgG1, kappa)
heavy: not shown
chain: EPKSSDKTHTCPPCPAPELLGGPSVFLFPPKPKDTLMISRTPEVTCVVVDVSHEDPEVKFNWYVDGVEVHNAKTKPREEQYNSTYRVVSVLTVLHQDWLNGKEYKCKVSNKALPAPIEKTISKAKGQPREPQVCTLPPSRDELTKNQVSLWCLVKGFYPSDIAVEWESNGQPENNYKTTPPVLDSDGSFFLYSKLTVDKSRWQQGNVFSCSVMHEALHNRYTQKSLSLSP
light: DIVMTQSPLSLPVTPGEPASISCRSSQSPVHSNRNTYLHWYLQKPGQSPQLLIYKVSNRFSGVPDRFSGSGSGTDFTLKISRVEAEDVGVYYCGQGTQVPYTFGQGTKLEIKRTVAAPSVFIFPPSDEQLKSGTASVVCLLNNFYPREAKVQWKVDNALQSGNSQESVTEQDSKDSTYSLSSTLTLSKADYEKHKVYACEVTHQGLSSPVTKSFNRGEC
notes: single-arm (one Fab)
B2 gave a Kd of 2.45 nM.

B3: GCH054-G1dh/none-Hi-Kn010G3/TR01L016-k0 (antibody, human IgG1, kappa)
heavy: not shown
chain: EPKSSDKTHTCPPCPAPELLGGPSVFLFPPKPKDTLMISRTPEVTCVVVDVSHEDPEVKFNWYVDGVEVHNAKTKPREEQYNSTYRVVSVLTVLHQDWLNGKEYKCKVSNKALPAPIEKTISKAKGQPREPQVCTLPPSRDELTKNQVSLWCLVKGFYPSDIAVEWESNGQPENNYKTTPPVLDSDGSFFLYSKLTVDKSRWQQGNVFSCSVMHEALHNRYTQKSLSLSP
light: DIVMTQSPLSLPVTPGEPASISCRSSQSPVHSNRNTYLHWYLQKPGQSPQLLIYKVSNRFSGVPDRFSGSGSGTDFTLKISRVEAEDVGVYYCYQGTQVPYTFGQGTKLEIKRTVAAPSVFIFPPSDEQLKSGTASVVCLLNNFYPREAKVQWKVDNALQSGNSQESVTEQDSKDSTYSLSSTLTLSKADYEKHKVYACEVTHQGLSSPVTKSFNRGEC
notes: single-arm (one Fab)
Consider B3, for which binding was put at a Kd of 0.763 nM.

B4: GCH054-G1dh/none-Hi-Kn010G3/L0246-k0 (antibody, human IgG1, kappa)
heavy: not shown
chain: EPKSSDKTHTCPPCPAPELLGGPSVFLFPPKPKDTLMISRTPEVTCVVVDVSHEDPEVKFNWYVDGVEVHNAKTKPREEQYNSTYRVVSVLTVLHQDWLNGKEYKCKVSNKALPAPIEKTISKAKGQPREPQVCTLPPSRDELTKNQVSLWCLVKGFYPSDIAVEWESNGQPENNYKTTPPVLDSDGSFFLYSKLTVDKSRWQQGNVFSCSVMHEALHNRYTQKSLSLSP
light: DIVMTQSPLSLPVTPGEPASISCRSSQSPVHSNRNTYIQWYQQKPGQAPRLLIYKVSNRFSGVPDRFSGSGSGTDFTLKISRVEAEDVGVYYCSQGTQVPYTFGQGTKLEIKRTVAAPSVFIFPPSDEQLKSGTASVVCLLNNFYPREAKVQWKVDNALQSGNSQESVTEQDSKDSTYSLSSTLTLSKADYEKHKVYACEVTHQGLSSPVTKSFNRGEC
notes: single-arm (one Fab)
On to B4, for which the Kd turned out to be 0.0315 nM.

B5: GCH054-G1dh/none-Hi-Kn010G3/TR01L018-k0 (antibody, human IgG1, kappa)
heavy: not shown
chain: EPKSSDKTHTCPPCPAPELLGGPSVFLFPPKPKDTLMISRTPEVTCVVVDVSHEDPEVKFNWYVDGVEVHNAKTKPREEQYNSTYRVVSVLTVLHQDWLNGKEYKCKVSNKALPAPIEKTISKAKGQPREPQVCTLPPSRDELTKNQVSLWCLVKGFYPSDIAVEWESNGQPENNYKTTPPVLDSDGSFFLYSKLTVDKSRWQQGNVFSCSVMHEALHNRYTQKSLSLSP
light: DIVMTQSPLSLPVTPGEPASISCQASESPVHSNRNTYLHWYLQKPGQSPQLLIYKVSNRFSGVPDRFSGSGSGTDFTLKISRVEAEDVGVYYCGQGTQVPYTFGQGTKLEIKRTVAAPSVFIFPPSDEQLKSGTASVVCLLNNFYPREAKVQWKVDNALQSGNSQESVTEQDSKDSTYSLSSTLTLSKADYEKHKVYACEVTHQGLSSPVTKSFNRGEC
notes: single-arm (one Fab)
In turn, B5 gave a Kd of 2.59 nM.

B6: GCH055-G1dh/none-Hi-Kn010G3/L0222-k0 (antibody, human IgG1, kappa)
heavy: not shown
chain: EPKSSDKTHTCPPCPAPELLGGPSVFLFPPKPKDTLMISRTPEVTCVVVDVSHEDPEVKFNWYVDGVEVHNAKTKPREEQYNSTYRVVSVLTVLHQDWLNGKEYKCKVSNKALPAPIEKTISKAKGQPREPQVCTLPPSRDELTKNQVSLWCLVKGFYPSDIAVEWESNGQPENNYKTTPPVLDSDGSFFLYSKLTVDKSRWQQGNVFSCSVMHEALHNRYTQKSLSLSP
light: DIVMTQSPLSLPVTPGEPASISCRSSQSPVHSNRNTYIQWYQQKPGQAPRLLIYKVSNRFSGVPDRFSGSGSGTDFTLKISRVEAEDVGVYYCYQGTQVPYTFGQGTKLEIKRTVAAPSVFIFPPSDEQLKSGTASVVCLLNNFYPREAKVQWKVDNALQSGNSQESVTEQDSKDSTYSLSSTLTLSKADYEKHKVYACEVTHQGLSSPVTKSFNRGEC
notes: single-arm (one Fab)
As for B6, the Kd amounted to 0.0039 nM.

B7: GCH054-G1dh/none-Hi-Kn010G3/L0249-k0 (antibody, human IgG1, kappa)
heavy: not shown
chain: EPKSSDKTHTCPPCPAPELLGGPSVFLFPPKPKDTLMISRTPEVTCVVVDVSHEDPEVKFNWYVDGVEVHNAKTKPREEQYNSTYRVVSVLTVLHQDWLNGKEYKCKVSNKALPAPIEKTISKAKGQPREPQVCTLPPSRDELTKNQVSLWCLVKGFYPSDIAVEWESNGQPENNYKTTPPVLDSDGSFFLYSKLTVDKSRWQQGNVFSCSVMHEALHNRYTQKSLSLSP
light: DIVMTQSPLSLPVTPGEPASISCRPSQSPVHSNRNTYIQWYQQKPGQAPRLLIYKVSNRFSGVPDRFSGSGSGTDFTLKISRVEAEDVGVYYCSQGTQVPYTFGQGTKLEIKRTVAAPSVFIFPPSDEQLKSGTASVVCLLNNFYPREAKVQWKVDNALQSGNSQESVTEQDSKDSTYSLSSTLTLSKADYEKHKVYACEVTHQGLSSPVTKSFNRGEC
notes: single-arm (one Fab)
Regarding B7, the Kd was 0.00361 nM.

B8: GCH054-G1dh/none-Hi-Kn010G3/TR01L019-k0 (antibody, human IgG1, kappa)
heavy: not shown
chain: EPKSSDKTHTCPPCPAPELLGGPSVFLFPPKPKDTLMISRTPEVTCVVVDVSHEDPEVKFNWYVDGVEVHNAKTKPREEQYNSTYRVVSVLTVLHQDWLNGKEYKCKVSNKALPAPIEKTISKAKGQPREPQVCTLPPSRDELTKNQVSLWCLVKGFYPSDIAVEWESNGQPENNYKTTPPVLDSDGSFFLYSKLTVDKSRWQQGNVFSCSVMHEALHNRYTQKSLSLSP
light: DIVMTQSPLSLPVTPGEPASISCQASESPVHSNRNTYLHWYLQKPGQSPQLLIYKVSNRFSGVPDRFSGSGSGTDFTLKISRVEAEDVGVYYCYQGTQVPYTFGQGTKLEIKRTVAAPSVFIFPPSDEQLKSGTASVVCLLNNFYPREAKVQWKVDNALQSGNSQESVTEQDSKDSTYSLSSTLTLSKADYEKHKVYACEVTHQGLSSPVTKSFNRGEC
notes: single-arm (one Fab)
Molecule B8 yielded a Kd of 0.871 nM.

B9: GCH054-G1dh/none-Hi-Kn010G3/L0262-k0 (antibody, human IgG1, kappa)
heavy: not shown
chain: EPKSSDKTHTCPPCPAPELLGGPSVFLFPPKPKDTLMISRTPEVTCVVVDVSHEDPEVKFNWYVDGVEVHNAKTKPREEQYNSTYRVVSVLTVLHQDWLNGKEYKCKVSNKALPAPIEKTISKAKGQPREPQVCTLPPSRDELTKNQVSLWCLVKGFYPSDIAVEWESNGQPENNYKTTPPVLDSDGSFFLYSKLTVDKSRWQQGNVFSCSVMHEALHNRYTQKSLSLSP
light: DIVMTQSPLSLPVTPGEPASISCRSSQPPVHSNRNTYLHWYQQKPGQAPRLLIYKVSNRFSGVPDRFSGSGSGTDFTLKISRVEAEDVGVYYCAQGTQVPYTFGQGTKLEIKRTVAAPSVFIFPPSDEQLKSGTASVVCLLNNFYPREAKVQWKVDNALQSGNSQESVTEQDSKDSTYSLSSTLTLSKADYEKHKVYACEVTHQGLSSPVTKSFNRGEC
notes: single-arm (one Fab)
Take B9: the Kd came to 0.000525 nM.

B10: GCH055-G1dh/none-Hi-Kn010G3/L0215-k0 (antibody, human IgG1, kappa)
heavy: not shown
chain: EPKSSDKTHTCPPCPAPELLGGPSVFLFPPKPKDTLMISRTPEVTCVVVDVSHEDPEVKFNWYVDGVEVHNAKTKPREEQYNSTYRVVSVLTVLHQDWLNGKEYKCKVSNKALPAPIEKTISKAKGQPREPQVCTLPPSRDELTKNQVSLWCLVKGFYPSDIAVEWESNGQPENNYKTTPPVLDSDGSFFLYSKLTVDKSRWQQGNVFSCSVMHEALHNRYTQKSLSLSP
light: DIVMTQSPLSLPVTPGEPASISCRSSQPPVHSNRNTYIHWYQQKPGQAPRLLIYKVSNRFSGVPDRFSGSGSGTDFTLKISRVEAEDVGVYYCGQGTQVPYTFGQGTKLEIKRTVAAPSVFIFPPSDEQLKSGTASVVCLLNNFYPREAKVQWKVDNALQSGNSQESVTEQDSKDSTYSLSSTLTLSKADYEKHKVYACEVTHQGLSSPVTKSFNRGEC
notes: single-arm (one Fab)
Consider B10, for which the Kd was determined as 1.52 nM.

B11: GCH055-G1dh/none-Hi-Kn010G3/L0212-k0 (antibody, human IgG1, kappa)
heavy: not shown
chain: EPKSSDKTHTCPPCPAPELLGGPSVFLFPPKPKDTLMISRTPEVTCVVVDVSHEDPEVKFNWYVDGVEVHNAKTKPREEQYNSTYRVVSVLTVLHQDWLNGKEYKCKVSNKALPAPIEKTISKAKGQPREPQVCTLPPSRDELTKNQVSLWCLVKGFYPSDIAVEWESNGQPENNYKTTPPVLDSDGSFFLYSKLTVDKSRWQQGNVFSCSVMHEALHNRYTQKSLSLSP
light: DIVMTQSPLSLPVTPGEPASISCRPSQSPVHSNRNTYLHWYQQKPGQAPRLLIYKVSNRFSGVPDRFSGSGSGTDFTLKISRVEAEDVGVYYCYQGTQVPYTFGQGTKLEIKRTVAAPSVFIFPPSDEQLKSGTASVVCLLNNFYPREAKVQWKVDNALQSGNSQESVTEQDSKDSTYSLSSTLTLSKADYEKHKVYACEVTHQGLSSPVTKSFNRGEC
notes: single-arm (one Fab)
The molecule B11 registered a Kd of 0.614 nM.

B12: GCH055-G1dh/none-Hi-Kn010G3/L0200-k0 (antibody, human IgG1, kappa)
heavy: not shown
chain: EPKSSDKTHTCPPCPAPELLGGPSVFLFPPKPKDTLMISRTPEVTCVVVDVSHEDPEVKFNWYVDGVEVHNAKTKPREEQYNSTYRVVSVLTVLHQDWLNGKEYKCKVSNKALPAPIEKTISKAKGQPREPQVCTLPPSRDELTKNQVSLWCLVKGFYPSDIAVEWESNGQPENNYKTTPPVLDSDGSFFLYSKLTVDKSRWQQGNVFSCSVMHEALHNRYTQKSLSLSP
light: DIVMTQSPLSLPVTPGEPASISCRPSQSPVHSNRNTYLHWYQQKPGQAPRLLIYKVSNRFSGVPDRFSGSGSGTDFTLKISRVEAEDVGVYYCGQGTQVPYTFGQGTKLEIKRTVAAPSVFIFPPSDEQLKSGTASVVCLLNNFYPREAKVQWKVDNALQSGNSQESVTEQDSKDSTYSLSSTLTLSKADYEKHKVYACEVTHQGLSSPVTKSFNRGEC
notes: single-arm (one Fab)
Consider B12, for which the Kd came out at 1.13 nM.

For orientation: Kd means the constant that tells how readily two partners part at equilibrium.
